What was measured:
Experiment in all cases: purified protein
CC(=O)Oc1ccccc1 = conditions: pH 8.0; 25.0 °C
[1] = test system: CCCC(=O)Oc1ccc([N+](=O)[O-])cc1; conditions: pH 8.0; 25.0 °C
O=C1CCc2ccccc2O1 = conditions: pH 7.4; 25.0 °C
[2] = test system: CC(=O)Oc1ccc([N+](=O)[O-])cc1; conditions: pH 8.0; 25.0 °C

reTAPON1-LIKE (Trichoderma atroviride)
Km (CC(=O)Oc1ccccc1): 890 ± 60 µM
Km [1]: 1580 ± 120 µM
Km (O=C1CCc2ccccc2O1): 730 ± 10 µM
Km [2]: 1120 ± 140 µM

From publication doi:10.1101/416081v1
